Results: article PMC8080067, “Tight binding of cytochrome b5 to cytochrome P450 17A1 is a critical feature of stimulation of C21 steroid lyase activity and androgen synthesis” (The Journal of Biological Chemistry, 2021)
Numbering of substitutions follows the chain as printed. Names and notes keep the numbering of the source. “Also recorded” adds a separate entry of the source. Ends that are not written are not given here.

Assays:
P450 17A1 = target: T1, P450 17A1 (Homo sapiens, UniProt P05093); test: Inhibition of reconstituted P450 17A1 steroid oxidation reactions by peptides; assay type: biochemical
T1 construct: made in house; host or cells: Escherichia coli (P450 17A1 in JM109)
Text: The “b5 peptide” corresponds to residues 43 to 52 of b5, and the “17A1 peptide” corresponds to residues 347 to 358 of P450 17A1 (see Experimental procedures section and Fig. S7).

[1] = target: P450cam (Pseudomonas putida) (UniProt P00183); test: fluorescence titration; details: cited from earlier work
cytochrome c = cytochrome c (UniProt P99999); test: fluorescence titration; details: cited from earlier work
metmyoglobin = metmyoglobin (UniProt P02144); test: fluorescence titration; details: cited from earlier work
[2] = target: T2, Alexa 488-T70C-b5:P450 17A1 complex (Homo sapiens, UniProt P00167+P05093, T70C); test: Peptide addition to Alexa 488-T70C-b5:P450 17A1 complex (gain of fluorescence); assay type: binding; details: even at a concentration of 160 μM; data not presented
T2 construct: made in house; host or cells: Escherichia coli (P450 17A1 in JM109; T70C-b5 plasmid in DH5α)
Text: Peptides were obtained corresponding to the putative binding sites of P450 17A1 and b5 (see Experimental procedures section and Fig. S7).

[3] = substrate: CC(=O)C1CCC2C3CC=C4C[C@@H](O)CC[C@]4(C)C3CC[C@]12C; test: purified protein, by the assay type; details: other: 17α-hydroxylation, pH 7.4, 30.0 °C
[4] = substrate: CC(=O)[C@@]1(O)CCC2C3CC=C4C[C@@H](O)CC[C@]4(C)C3CC[C@@]21C; test: purified protein, by the assay type; details: other: lyase reaction (conversion to androstenedione or DHEA), pH 7.4, 30.0 °C
[5] = substrate: CC(=O)[C@H]1CC[C@H]2[C@@H]3CCC4=CC(=O)CC[C@]4(C)[C@H]3CC[C@]12C; test: purified protein, by the assay type; details: other: 17α-hydroxylation, pH 7.4, 30.0 °C
WT P450 17A1 [6] = target: T3, WT P450 17A1 (human, UniProt P05093 1-508); test: other fluorescence titration; as a1, with pregnenolone present at 10 μM; details: both partners purified
T3 construct: cytochrome P450 17A1, human; approximate Mr 57 kDa; also called cytochrome P450 17A1; CYP17A1; source: E. coli JM109 (pCW vector), purified (Ni2+-NTA)
T3 sequence (looked up): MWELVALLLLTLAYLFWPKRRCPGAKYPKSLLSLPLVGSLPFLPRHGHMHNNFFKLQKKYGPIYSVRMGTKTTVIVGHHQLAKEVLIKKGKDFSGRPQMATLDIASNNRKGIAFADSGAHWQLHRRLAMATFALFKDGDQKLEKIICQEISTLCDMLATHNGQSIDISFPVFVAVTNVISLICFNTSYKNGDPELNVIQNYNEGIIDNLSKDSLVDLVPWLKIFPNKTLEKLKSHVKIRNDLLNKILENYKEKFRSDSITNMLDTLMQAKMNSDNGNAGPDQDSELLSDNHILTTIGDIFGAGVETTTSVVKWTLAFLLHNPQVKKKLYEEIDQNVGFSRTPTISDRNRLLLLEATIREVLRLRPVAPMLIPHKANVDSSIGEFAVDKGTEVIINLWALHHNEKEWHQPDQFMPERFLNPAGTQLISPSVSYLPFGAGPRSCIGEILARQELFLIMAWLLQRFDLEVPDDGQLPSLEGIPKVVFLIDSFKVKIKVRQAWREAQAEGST

WT P450 17A1 [7] = target: T3, WT P450 17A1; test: other fluorescence titration; as a1, with progesterone present at 10 μM; details: both partners purified
WT P450 17A1 [8] = target: T3, WT P450 17A1; test: other fluorescence titration; as a1, with 17-OH pregnenolone present at 10 μM; details: both partners purified
WT P450 17A1 [9] = target: T3, WT P450 17A1; test: other fluorescence titration; as a1, with 17-OH progesterone present at 10 μM; details: both partners purified
WT P450 17A1 [10] = target: T3, WT P450 17A1; test: stopped-flow fluorescence; dissociation: preformed Alexa 488-T70C-b5:P450 17A1 complex mixed with 30 μM unlabeled b5; excitation 488 nm, emission >530 nm, single exponential; details: both partners purified
WT P450 17A1 [11] = target: T3, WT P450 17A1; test: other fluorescence titration; 50 nM Alexa 488-T70C-b5 in 100 mM potassium phosphate pH 7.4 titrated with P450 17A1 (WT or variant); excitation 480 nm, emission 513 nm; quadratic fit; no substrate; no phospholipid vesicles; apparent Kd; details: both partners purified
WT P450 17A1 [12] = target: T4, WT P450 17A1 (Homo sapiens, UniProt P05093); assay type: biochemical; design: made in house; host or cells: Escherichia coli (P450 17A1 in JM109)
T4 sequence (P05093 1-508): T3 sequence (looked up)
Procedure: Figure S4. Stimulation of lyase activities by b5, T70C- b5, and NanoTemper Blue-T70C-b5. Catalytic assays for the lyase reactions were performed and analyzed as described in the main text.

T1 sequence (P00167 whole entry partner, one chain of several): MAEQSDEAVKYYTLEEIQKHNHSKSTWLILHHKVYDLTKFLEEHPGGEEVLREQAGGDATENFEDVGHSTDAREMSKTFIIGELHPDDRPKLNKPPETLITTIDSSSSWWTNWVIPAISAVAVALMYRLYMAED
Sequence of P450cam (Pseudomonas putida) (P00183 2-415): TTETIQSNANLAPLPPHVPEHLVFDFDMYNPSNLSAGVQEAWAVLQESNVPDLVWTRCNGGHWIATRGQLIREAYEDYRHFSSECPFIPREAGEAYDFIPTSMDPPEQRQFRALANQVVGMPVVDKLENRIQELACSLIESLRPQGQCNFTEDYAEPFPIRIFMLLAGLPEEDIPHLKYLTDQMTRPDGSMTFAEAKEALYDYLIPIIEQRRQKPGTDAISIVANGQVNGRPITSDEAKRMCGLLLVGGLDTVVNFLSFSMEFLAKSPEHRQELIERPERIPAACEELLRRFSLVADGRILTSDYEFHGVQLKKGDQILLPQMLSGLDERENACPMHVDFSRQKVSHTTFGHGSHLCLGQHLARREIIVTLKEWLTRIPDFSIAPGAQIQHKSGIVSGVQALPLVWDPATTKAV
T2 sequence (P00167 whole entry T70C, one chain of several): as the sequence (P00167 whole entry partner, one chain of several) above, with T70C counted along it
Sequence of cytochrome c (P99999 2-105): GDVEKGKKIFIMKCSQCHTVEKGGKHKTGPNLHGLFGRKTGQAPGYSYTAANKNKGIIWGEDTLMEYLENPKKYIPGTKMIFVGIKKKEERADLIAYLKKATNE
Sequence of metmyoglobin (P02144 2-154): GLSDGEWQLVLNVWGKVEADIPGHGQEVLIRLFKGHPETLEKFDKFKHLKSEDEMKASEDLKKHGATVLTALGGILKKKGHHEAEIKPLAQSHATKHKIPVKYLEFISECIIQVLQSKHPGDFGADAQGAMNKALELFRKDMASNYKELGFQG

With “RNRLLLLEATIR [P450 peptide, R N R L L L L E A T I R]” as the molecule, how does the “inhibition of progesterone 17α-hydroxylation” value (P450 17A1) read?
Its value is “only at the very highest concentration”.

What about the “inhibition of lyase reaction (17α-OH pregnenolone)” value (P450 17A1; b5 present at 10-fold higher concentration than P450, listed as P450 17A1 peptide) of the same molecule?
Its value is “more inhibitory to the lyase reaction (17α-OH pregnenolone) than the b5 peptide; also recorded: weak inhibition”.

For “cytochrome b5 (T65C labeled) (from UniProt P00173)”, which Kd [1] is on record?
Its Kd is 1000 nM.

And the Kd (cytochrome c)?
The Kd was 1000 nM.

What about the Kd (metmyoglobin) of the same molecule?
Its Kd is 1000 nM.

With “EHPGGEEVLRE [b5 peptide, E H P G G E E V L R E]” as the molecule, how does the “gain of fluorescence of Alexa 488-T70C-b5:P450 17A1 complex” value [2] read?
Its value is “did not result in a gain of fluorescence”.

B1: WT P450 17A1 (Homo sapiens) (protein)
chain: T3 sequence (looked up)
What does the source list for B1?
Km ([3]; WT): 0.47 ± 0.20 µM; kcat ([3]; WT): 0.0147 ± 0.000833 s⁻¹; kcat/Km ([3]; WT): 31700 M⁻¹ s⁻¹; Km ([4]; WT): 6.7 ± 2.1 µM; kcat ([4]; WT): 0.0917 s⁻¹; kcat/Km ([4]; WT): 13800 M⁻¹ s⁻¹; Km ([5]; WT): 7.8 ± 1.4 µM; kcat ([5]; WT): 0.107 ± 0.00833 s⁻¹; kcat/Km ([5]; WT): 13700 M⁻¹ s⁻¹

B2: P450 17A1 R358Q variant (Homo sapiens; R358Q) (protein)
chain: T3 sequence (looked up) with R358Q
With B2 as the molecule, how does the Km ([3]; R358Q) read?
Its Km is 2.6 ± 1.4 µM.

And the kcat ([3]; R358Q)?
The kcat was 0.00967 ± 0.0015 s⁻¹.

And the kcat/Km ([3]; R358Q)?
The kcat/Km was 3670 M⁻¹ s⁻¹.

And the Km ([4]; R358Q)?
The Km was 10 ± 5 µM.

What about the kcat ([4]; R358Q) of the same molecule?
The kcat was 0.000933 s⁻¹.

And the kcat/Km ([4]; R358Q)?
The kcat/Km was 83.3 M⁻¹ s⁻¹.

And the Km ([5]; R358Q)?
The Km was 4.6 ± 0.7 µM.

And the kcat ([5]; R358Q)?
The kcat was 0.00717 ± 0.000333 s⁻¹.

B3: P450 17A1 E305G variant (Homo sapiens; E305G) (protein)
chain: T3 sequence (looked up) with E305G
Which Km ([3]; E305G) does the source give for B3 here?
The Km was 5.7 ± 4.6 µM.

What about the kcat ([3]; E305G) of the same molecule?
The kcat was 0.00117 ± 0.000333 s⁻¹.

What about the kcat/Km ([3]; E305G) of the same molecule?
Its kcat/Km is 167 M⁻¹ s⁻¹.

What about the Km ([4]; E305G) of the same molecule?
The Km was 9.4 ± 3.7 µM.

And the kcat ([4]; E305G)?
The kcat was 0.000933 s⁻¹.

What about the kcat/Km ([4]; E305G) of the same molecule?
The kcat/Km was 100 M⁻¹ s⁻¹.

What about the Km ([5]; E305G) of the same molecule?
Its Km is 3.1 ± 0.4 µM.

And the kcat ([5]; E305G)?
The kcat was 0.00317 ± 0.000167 s⁻¹.

And the kcat/Km ([5]; E305G)?
The kcat/Km was 1000 M⁻¹ s⁻¹.

B4: P450 17A1 R347H variant (Homo sapiens; R347H) (protein)
chain: T3 sequence (looked up) with R347H
Which Km ([3]; R347H) does the source give for B4 here?
The Km was 1.5 ± 0.5 µM.

And the kcat ([3]; R347H)?
Its kcat is 0.00883 ± 0.000667 s⁻¹.

And the kcat/Km ([3]; R347H)?
Its kcat/Km is 5830 M⁻¹ s⁻¹.

What about the Km ([4]; R347H) of the same molecule?
Its Km is 4.8 ± 1.7 µM.

What about the kcat ([4]; R347H) of the same molecule?
Its kcat is 0.000717 s⁻¹.

And the kcat/Km ([4]; R347H)?
The kcat/Km was 150 M⁻¹ s⁻¹.

What about the Km ([5]; R347H) of the same molecule?
Its Km is 8.1 ± 2.2 µM.

And the kcat ([5]; R347H)?
The kcat was 0.003 ± 0.000333 s⁻¹.

What about the kcat/Km ([5]; R347H) of the same molecule?
Its kcat/Km is 333 M⁻¹ s⁻¹.

B5: Alexa 488-T70C-b5 (natural protein, human)
chain: MAEQSDEAVKYYTLEEIQKHNHSKSTWLILHHKVYDLTKFLEEHPGGEEVLREQAGGDATENFEDVGHSCDAREMSKTFIIGELHPDDRPKLNKPPETLITTIDSSSS
modifications: Alexa Fluor 488 maleimide conjugated to the cysteine of T70C; extent of modification 74%
notes: cytochrome b5 (CYB5A, b5), human, T70C; printed theoretical mass 16.9 kDa; Heme protein; also called labeled b5; fluorescently labeled variant of human b5
For B5, which Kd (WT P450 17A1 [6]) is on record?
Its Kd is 12 ± 5 nM.

And the Kd (WT P450 17A1 [7])?
The Kd was 5.8 ± 2.3 nM.

What about the Kd (WT P450 17A1 [8]) of the same molecule?
Its Kd is 2.2 ± 1 nM.

What about the Kd (WT P450 17A1 [9]) of the same molecule?
The Kd was 6 ± 1 nM.

What about the koff (WT P450 17A1 [10]) of the same molecule?
The koff was 1.9 ± 0.2 s⁻¹.

And the Kd (WT P450 17A1 [11])?
The Kd was 2.5 ± 0.6 nM.

B6: Blue-T70C-b5: T70C-b5 labeled with the proprietary NanoTemper BLUE fluorescent dye (protein, UniProt P00167 2-134, looked up, variant T70C)
Cytochrome b5: AEQSDEAVKYYTLEEIQKHNHSKSTWLILHHKVYDLTKFLEEHPGGEEVLREQAGGDATENFEDVGHSCDAREMSKTFIIGELHPDDRPKLNKPPETLITTIDSSSSWWTNWVIPAISAVAVALMYRLYMAED
modifications: NanoTemper BLUE fluorescent dye label
With B6 as the molecule, how does the “stimulation of lyase activities” value (WT P450 17A1 [12]) read?
The value was “stimulated the lyase reactions”.
